Measurements taken from US20090285771A1.

Molecular target: growth hormone (GH) receptor (mouse) (UniProt P16882)
Assay: cell-based or functional assay

recombinant rat growth hormone (from UniProt P01244 27-216) (ligand)
GH receptor mRNA expression levels in the liver (quantitative RT-PCR, normalized to GAPDH, % of control), 60 minutes after 30 µg subcutaneous rGH in BALB/c mice (% of level prior to administration): 65
IGF-1-BP3 mRNA expression levels in the liver (quantitative RT-PCR, normalized to GAPDH, % of control), 60 minutes after 30 µg subcutaneous rGH in BALB/c mice: 250 % increase
